# Test results: paper PMC9640265 (The Journal of General Physiology, 2022)
# Positions count from the first letter of the chain named. Names may count otherwise.
# B1: NaKΔ18 (domain or fragment, Bacillus cereus, UniProt Q81HW2 19-114, looked up)
# chain: WKDKEFQVLFVLTILTLISGTIFYSTVEGLRPIDALYFSVVTLTTVGDGNFSPQTDFGKIFTILYIFIGIGLVFGFIHKLAVNVQLPSILSNRKKE
# B2: L61T NaKΔ18 (domain or fragment, Bacillus cereus, UniProt Q81HW2 19-114, looked up)
# chain: B1 chain with L43T
# B3: L35A NaKΔ18 (domain or fragment, Bacillus cereus, UniProt Q81HW2 19-114, looked up)
# chain: B1 chain with L17A
# B4: L61A NaKΔ18 (domain or fragment, Bacillus cereus, UniProt Q81HW2 19-114, looked up)
# chain: B1 chain with L43A
# B5: L35A/L61A NaKΔ18 (domain or fragment, Bacillus cereus, UniProt Q81HW2 19-114, looked up)
# chain: B1 chain with L17A, L43A
# Target: the molecule itself
# Test: SEC
row,Protein,stoichiometry N
1,B1,4
2,B2,4
3,B3,4
4,B4,4
5,B5,4
